Measured values: patent US6025480

Columns and labels:
[1] = target: cyclin E-cdk2 (baculovirally coexpressed cyclin E and cdk2-HA)
[2] = target: cyclin A-cdk2 (baculovirally coexpressed cyclin A and cdk2-HA)

Substance: flag-p57 (mouse p57^KIP2 tagged at the N-terminus with the flag epitope)
- half-maximal inhibition of histone H1 kinase activity [1]: 0.5 nM
- half-maximal inhibition of histone H1 kinase activity [2]: 0.5 nM
